Molecular target: Fc receptor on THP-1 cells
Assay: cell-based or functional assay

human IgG1 (heat aggregated, coated on wells) (antibody)
TNF-α secretion from THP-1 cells on coated wells (10 µg/well, heat aggregated): > 40 ng/well
